Measured values: paper PMC10397247

Key:
4H2944-bN = target: T1, 4H2944-bN; experiment: two-hybrid library CCNG1;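 further: natural log of median RNA to DNA barcode read ratio; higher means stronger binding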
T1 chain: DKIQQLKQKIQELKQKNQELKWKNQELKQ

4H342-bN = target: T2, 4H342-bN; experiment: two-hybrid library CCNG1;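 further: natural log of median RNA to DNA barcode read ratio; higher means stronger binding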
T2 chain: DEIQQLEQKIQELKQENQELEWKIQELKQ

4H491-bN = target: T3, 4H491-bN; experiment: two-hybrid library CCNG1;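 further: natural log of median RNA to DNA barcode read ratio; higher means stronger binding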
T3 chain: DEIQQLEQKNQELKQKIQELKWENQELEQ

4H2937-bN = target: T4, 4H2937-bN; experiment: two-hybrid library CCNG1;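 further: natural log of median RNA to DNA barcode read ratio; higher means stronger binding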
T4 chain: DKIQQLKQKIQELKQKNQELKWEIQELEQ

4H48-bN = target: T5, 4H48-bN; experiment: two-hybrid library CCNG1
T5 chain: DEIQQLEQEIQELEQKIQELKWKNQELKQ

O14-bN = target: T6, O14-bN; experiment: two-hybrid library CCNG1
T6 chain: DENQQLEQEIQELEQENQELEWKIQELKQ

4H2473-bA = target: T7, 4H2473-bA; experiment: two-hybrid library CCNG1
T7 chain: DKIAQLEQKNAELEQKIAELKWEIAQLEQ

4H2717-bA = target: T8, 4H2717-bA; experiment: two-hybrid library CCNG1
T8 chain: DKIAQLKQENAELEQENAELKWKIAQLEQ

4H348-bA = target: T9, 4H348-bA; experiment: two-hybrid library CCNG1
T9 chain: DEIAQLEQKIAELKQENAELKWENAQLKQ

4H2223-bA = target: T10, 4H2223-bA; experiment: two-hybrid library CCNG1
T10 chain: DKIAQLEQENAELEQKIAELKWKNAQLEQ

4H2692-bA = target: T11, 4H2692-bA; experiment: two-hybrid library CCNG1
T11 chain: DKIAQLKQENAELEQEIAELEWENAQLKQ

4H741-bA = target: T12, 4H741-bA; experiment: two-hybrid library CCNG1
T12 chain: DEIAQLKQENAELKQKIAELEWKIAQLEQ

4H2134-bA = target: T13, 4H2134-bA; experiment: two-hybrid library CCNG1
T13 chain: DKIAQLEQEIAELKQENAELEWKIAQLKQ

4H2503-bA = target: T14, 4H2503-bA; experiment: two-hybrid library CCNG1
T14 chain: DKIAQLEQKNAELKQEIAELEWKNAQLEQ

4H492-bA = target: T15, 4H492-bA; experiment: two-hybrid library CCNG1
T15 chain: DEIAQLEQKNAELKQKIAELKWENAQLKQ

4H477-bA = target: T16, 4H477-bA; experiment: two-hybrid library CCNG1
T16 chain: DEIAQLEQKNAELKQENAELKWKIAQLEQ

4H3057-bA = target: T17, 4H3057-bA; experiment: two-hybrid library CCNG1
T17 chain: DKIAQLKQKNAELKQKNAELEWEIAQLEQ

4H319-bA = target: T18, 4H319-bA; experiment: two-hybrid library CCNG1
T18 chain: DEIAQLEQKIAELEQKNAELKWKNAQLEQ

4H2839-bA = target: T19, 4H2839-bA; experiment: two-hybrid library CCNG1
T19 chain: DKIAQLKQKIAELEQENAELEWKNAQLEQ

4H2915-bA = target: T20, 4H2915-bA; experiment: two-hybrid library CCNG1
T20 chain: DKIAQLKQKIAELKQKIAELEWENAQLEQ

4H2588-bA = target: T21, 4H2588-bA; experiment: two-hybrid library CCNG1
T21 chain: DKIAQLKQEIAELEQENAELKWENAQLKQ

4H3277-bA = target: T22, 4H3277-bA; experiment: two-hybrid library CCNG1
T22 chain: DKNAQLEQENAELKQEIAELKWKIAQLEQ

4H40-bA = target: T23, 4H40-bA; experiment: two-hybrid library CCNG1
T23 chain: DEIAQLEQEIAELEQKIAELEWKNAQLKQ

4H2143-bA = target: T24, 4H2143-bA; experiment: two-hybrid library CCNG1
T24 chain: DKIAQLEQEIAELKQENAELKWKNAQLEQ

4H2438-bA = target: T25, 4H2438-bA; experiment: two-hybrid library CCNG1
T25 chain: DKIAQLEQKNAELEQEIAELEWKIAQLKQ

O14 = target: T26, O14; experiment: two-hybrid library CC0; details: mean of both orientations
T26 chain: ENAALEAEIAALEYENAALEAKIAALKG

O15 = target: T27, O15; experiment: two-hybrid library CC0; details: mean of both orientations
T27 chain: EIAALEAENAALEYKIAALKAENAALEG

O4 = target: T28, O4; experiment: two-hybrid library CC0; details: mean of both orientations
T28 chain: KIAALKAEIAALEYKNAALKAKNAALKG

O13 = target: T29, O13; experiment: two-hybrid library CC0; details: mean of both orientations
T29 chain: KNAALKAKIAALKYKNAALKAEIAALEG

O7 = target: T30, O7; experiment: two-hybrid library CC0; details: mean of both orientations
T30 chain: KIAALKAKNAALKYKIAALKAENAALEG

O12 = target: T31, O12; experiment: two-hybrid library CC0; details: mean of both orientations
T31 chain: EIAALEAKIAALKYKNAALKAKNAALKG

O8 = target: T32, O8; experiment: two-hybrid library CC0; details: mean of both orientations
T32 chain: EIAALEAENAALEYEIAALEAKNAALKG

O5 = target: T33, O5; experiment: two-hybrid library CC0; details: mean of both orientations
T33 chain: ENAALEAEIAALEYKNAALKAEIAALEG

O3 = target: T34, O3; experiment: two-hybrid library CC0; details: mean of both orientations
T34 chain: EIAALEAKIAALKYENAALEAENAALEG

O9 = target: T35, O9; experiment: two-hybrid library CC0; details: mean of both orientations
T35 chain: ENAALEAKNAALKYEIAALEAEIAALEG

O2 = target: T36, O2; experiment: two-hybrid library CC0; details: mean of both orientations
T36 chain: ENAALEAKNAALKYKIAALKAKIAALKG

O6 = target: T37, O6; experiment: two-hybrid library CC0; details: mean of both orientations
T37 chain: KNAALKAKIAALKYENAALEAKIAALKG

O16 = target: T38, O16; experiment: two-hybrid library CC0; details: mean of both orientations
T38 chain: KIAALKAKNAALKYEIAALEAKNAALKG

DKIQQLKQKIQELKQKNQELKWEIQELEQ [4H2937-bN]
interaction score (4H2944-bN): -1.12 | interaction score (4H342-bN): 1.46 | interaction score (4H491-bN): -1.11 | interaction score (4H2937-bN): -0.616 | interaction score (4H48-bN): -0.313

DKIAQLEQEIAELKQENAELEWKIAQLKQ [4H2134-bA]
interaction score (O14-bN): -1.45 | interaction score (4H2473-bA): 0.432 | interaction score (4H2717-bA): -0.277 | interaction score (4H348-bA): -1.14 | interaction score (4H2223-bA): -0.522 | interaction score (4H2692-bA): -0.139 | interaction score (4H741-bA): -1.46 | interaction score (4H2134-bA): 1.43 | interaction score (4H2503-bA): 0.834 | interaction score (4H492-bA): 0.114 | interaction score (4H477-bA): 0.935 | interaction score (4H3057-bA): 2.33 | interaction score (4H319-bA): -0.399 | interaction score (4H2839-bA): 0.969 | interaction score (4H2915-bA): 1.66 | interaction score (4H2588-bA): 0.531 | interaction score (4H3277-bA): 0.0479 | interaction score (4H40-bA): 0.811 | interaction score (4H2143-bA): 1.32 | interaction score (4H2438-bA): 0.819

EIAALEAKIAALKYKNAALKAKNAALKG [O12]
interaction score (O14): -2.03 | interaction score (O15): -2.78 | interaction score (O4): -2.22 | interaction score (O13): -2.79 | interaction score (O7): -2.84 | interaction score (O12): -2.79 | interaction score (O8): -2.29 | interaction score (O5): -2.71 | interaction score (O3): 0.0458 | interaction score (O9): -2.71 | interaction score (O2): -2.79 | interaction score (O6): -2.7 | interaction score (O16): -2.78
